# Experimental data taken from PMC8600091.
# What was measured:
# MBD2 MBD R188K = MBD2 MBD R188K (Homo sapiens, UniProt Q9UBB5 143-220, R188K); assay: ITC
# MBD2 MBD R166K/R188K = MBD2 MBD R166K/R188K (Homo sapiens, UniProt Q9UBB5 143-220, R166K;R188K); assay: ITC
# MBD2 MBD R166K/R188K, sequence (Q9UBB5 143-220 R166K/R188K): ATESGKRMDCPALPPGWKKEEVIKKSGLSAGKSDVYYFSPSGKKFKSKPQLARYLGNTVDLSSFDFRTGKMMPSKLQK
# MBD2 MBD R188K, sequence (Q9UBB5 143-220 R188K): as the sequence (Q9UBB5 143-220 R166K/R188K) above, with K24R counted along it
binder,measurement,setting,value
"mCG dsDNA 12mer (dsDNA, 5-methyl-C at position 6 of both strands) DNA 1: GCCAACGTTGGC DNA 2: GCCAACGTTGGC",Kd,MBD2 MBD R188K,7.5 ± 0.4 µM
same,binding result,MBD2 MBD R166K/R188K,no binding
